According to PMC5405867:

What was measured:
ISG15 (Mus musculus) = ISG15 (Mus musculus) (UniProt Q64339); assay: microscale thermophoresis; conditions: cited from earlier work
[1] = molecular target: murine USP18^IBB-1-USP7, His6-tagged (mouse) (UniProt Q9WTV6)

Sequence of ISG15 (Mus musculus) (Q64339 1-155): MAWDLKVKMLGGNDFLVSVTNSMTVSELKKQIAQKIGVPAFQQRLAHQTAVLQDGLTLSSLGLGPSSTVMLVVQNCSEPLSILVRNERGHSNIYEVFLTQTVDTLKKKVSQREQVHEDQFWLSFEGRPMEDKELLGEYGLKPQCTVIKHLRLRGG

Row | catalytic activity towards ISG15-FP, percent of wild type (% of wt activity) [1] | Substance | Kd (ISG15 (Mus musculus)) [nM]
1 | – | USP18 (from UniProt Q9WTV6) | 1300
2 | 0.5 | mouse ISG15 (residues 1-155, C76S) (from UniProt Q64339 1-155) (natural protein) | –
